# US20110142851A1 (EMERGENT PRODUCT DEVELOPMENT SEATTLE, published 2011)
# Like-named read-outs stand apart in the source and are kept apart here.
# T1: hu HIL6 Fc dimer (dimeric human HIL6/mouse IgG Fc fusion protein) (human)
# T1 construct: also called human hyper-IL6 (IL6R-IL6-mIgG); dimeric HIL6
# T1 chain: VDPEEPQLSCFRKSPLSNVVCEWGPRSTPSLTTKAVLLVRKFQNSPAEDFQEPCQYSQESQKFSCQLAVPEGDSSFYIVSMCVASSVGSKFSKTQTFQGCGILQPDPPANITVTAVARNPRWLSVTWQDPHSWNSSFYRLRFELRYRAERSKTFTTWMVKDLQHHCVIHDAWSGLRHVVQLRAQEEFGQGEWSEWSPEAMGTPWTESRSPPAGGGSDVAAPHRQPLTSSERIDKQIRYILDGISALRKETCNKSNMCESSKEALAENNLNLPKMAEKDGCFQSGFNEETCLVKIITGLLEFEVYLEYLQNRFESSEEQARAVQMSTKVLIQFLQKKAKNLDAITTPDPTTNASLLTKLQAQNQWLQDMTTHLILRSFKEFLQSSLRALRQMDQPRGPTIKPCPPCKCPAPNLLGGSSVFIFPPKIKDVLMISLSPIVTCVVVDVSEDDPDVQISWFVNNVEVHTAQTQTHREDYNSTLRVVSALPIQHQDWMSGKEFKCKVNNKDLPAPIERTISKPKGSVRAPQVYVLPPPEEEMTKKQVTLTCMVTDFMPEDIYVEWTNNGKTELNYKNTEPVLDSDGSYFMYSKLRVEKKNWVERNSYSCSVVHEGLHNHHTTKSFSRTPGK
# T2: sIL6R Fc dimer (UniProt P08887 20-358, limits assumed)
# T2 construct: not shown: Fc
# T2 sequence (looked up): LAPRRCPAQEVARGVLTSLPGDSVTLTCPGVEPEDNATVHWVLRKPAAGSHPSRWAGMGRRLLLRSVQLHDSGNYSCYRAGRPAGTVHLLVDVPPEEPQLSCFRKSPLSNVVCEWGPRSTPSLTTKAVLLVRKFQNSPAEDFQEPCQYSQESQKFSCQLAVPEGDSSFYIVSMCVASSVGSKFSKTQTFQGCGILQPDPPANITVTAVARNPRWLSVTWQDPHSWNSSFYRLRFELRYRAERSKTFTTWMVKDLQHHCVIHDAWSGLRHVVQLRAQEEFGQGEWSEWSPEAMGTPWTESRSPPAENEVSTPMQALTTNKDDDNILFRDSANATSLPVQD
# T3: hu HIL6 AFH monomer (human)
# T3 chain: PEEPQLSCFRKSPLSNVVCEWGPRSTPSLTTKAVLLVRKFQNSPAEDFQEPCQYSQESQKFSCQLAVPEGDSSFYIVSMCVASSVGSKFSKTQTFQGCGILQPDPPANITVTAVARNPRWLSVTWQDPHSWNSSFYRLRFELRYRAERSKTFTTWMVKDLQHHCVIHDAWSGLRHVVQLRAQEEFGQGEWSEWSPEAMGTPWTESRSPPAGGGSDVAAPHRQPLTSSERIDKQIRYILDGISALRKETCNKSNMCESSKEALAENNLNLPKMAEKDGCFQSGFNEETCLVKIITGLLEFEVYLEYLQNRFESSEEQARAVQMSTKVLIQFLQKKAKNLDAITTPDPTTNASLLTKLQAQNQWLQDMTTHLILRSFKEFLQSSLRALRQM
# B1: TRU(XT6)-1002 (Fc fusion)
# chain: LPAQVAFTPYAPEPGSTCRLREYYDQTAQMCCSKCSPGQHAKVFCTKTSDTVCDSCEDSTYTQLWNWVPECLSCGSRCSSDQVETQACTREQNRICTCRPGWYCALSKQEGCRLCAPLRKCRPGFGVARPGTETSDVVCKPCAPGTFSNTTSSTDICRPHQICNVVAIPGNASMDAVCTSTSPTRSMAPGAVHLPQPVSTRSQHTQPTPEPSTAPSTSFLLPMGPSPPAEGSTGDTGEPKSSDKTHTCPPCPAPEAAGAPSVFLFPPKPKDTLMISRTPEVTCVVVDVSHEDPEVKFNWYVDGVEVHNAKTKPREEQYNSTYRVVSVLTVLHQDWLNGKAYACAVSNKALPAPIEKTISKAKGQPREPQVYTLPPSRDELTKNQVSLTCLVKGFYPSDIAVEWESNGQPENNYKTTPPVLDSDGSFFLYSKLTVDKSRWQQGNVFSCSVMHEALHNHYTQKSLSLSPGQRHNNSSLNTRTQKARHSPNSEVQLLESGGGLVQPGGSLRLSCAASGFTFSFYQMHWVRQAPGKGLEWVSGIYPSGGYTKYADSVKGRFTISRDNSKNTLYLQMNSLRAEDTAVYYCARDLGYGSSWYYFDYWGQGTLVTVSSGGGGSGGGGSGGGGSQSALTQPASVSGSPGQSITISCSGTDSDVGGYNHVSWYQQHPGKAPKLIIYDVDHRPSGISNRFSGSKSGNTASLTISGLQAEDEADYYCSSYRSGSTYVFGTGTKVTVL
# notes: The entry holds a signal peptide that the mature protein lacks
# B2: TRU(S6)-1019 (Fc fusion)
# chain: EVQLLESGGGLVQPGGSLRLSCAASGFTFSWYLMHWVRQAPGKGLEWVSGIWPSGGHTLYADSVKGRFTISRDNSKNTLYLQMNSLRAEDTAVYYCAREPLLWFGELSYNWFDPWGQGTLVTVSSGGGGSGGGGSGGGGSQDIQMTQSPSSVSASVGDRVTITCRASQGISSWLAWYQQKPGKAPKLLIYAASSLQSGVPSRFSGSGSGTDFTLTISSLQPEDFATYYCQQANSFPLTFGGGTKVEIKTGEPKSSDKTHTCPPCPAPEAAGAPSVFLFPPKPKDTLMISRTPEVTCVVVDVSHEDPEVKFNWYVDGVEVHNAKTKPREEQYNSTYRVVSVLTVLHQDWLNGKAYACAVSNKALPAPIEKTISKAKGQPREPQVYTLPPSRDELTKNQVSLTCLVKGFYPSDIAVEWESNGQPENNYKTTPPVLDSDGSFFLYSKLTVDKSRWQQGNVFSCSVMHEALHNHYTQKSLSLSPGK
# notes: SMIP (scFv - linker - CH2CH3)
# B3: TRU(XT6)-1006 (Fc fusion)
# chain: LPAQVAFTPYAPEPGSTCRLREYYDQTAQMCCSKCSPGQHAKVFCTKTSDTVCDSCEDSTYTQLWNWVPECLSCGSRCSSDQVETQACTREQNRICTCRPGWYCALSKQEGCRLCAPLRKCRPGFGVARPGTETSDVVCKPCAPGTFSNTTSSTDICRPHQICNVVAIPGNASMDAVCTSTSPTRSMAPGAVHLPQPVSTRSQHTQPTPEPSTAPSTSFLLPMGPSPPAEGSTGDTGEPKSSDKTHTCPPCPAPEAAGAPSVFLFPPKPKDTLMISRTPEVTCVVVDVSHEDPEVKFNWYVDGVEVHNAKTKPREEQYNSTYRVVSVLTVLHQDWLNGKAYACAVSNKALPAPIEKTISKAKGQPREPQVYTLPPSRDELTKNQVSLTCLVKGFYPSDIAVEWESNGQPENNYKTTPPVLDSDGSFFLYSKLTVDKSRWQQGNVFSCSVMHEALHNHYTQKSLSLSPGQRHNNSSLNTRTQKARHSPNSEVQLLESGGGLVQPGGSLRLSCAASGFTFSQYNMIWVRQAPGKGLEWVSWISSSGGTEYADSVKGRFTISRDNSKNTLYLQMNSLRAEDTAVYYCAKDRGYGSGSYGAYDAFDIWGQGTMVTVSSGGGGSGGGGSGGGGSQDIQMTQSPSSLSASVGDRVTITCQTSQSIDRYLNWYQQKAGEAPKLLIYAASSLQSGVPSRFSGSGSGTDFTLTISSLQPEDFASYYCQQSYRTPRTFGQGTKVEIK
# notes: Xceptor, TNFRSF1B ectodomain N-terminal, anti-IL6xR domain C-terminal
# B4: recombinant human soluble IL6 receptor (receptor)
# chain: LAPRRCPAQEVARGVLTSLPGDSVTLTCPGVEPEDNATVHWVLRKPAAGSHPSRWAGMGRRLLLRSVQLHDSGNYSCYRAGRPAGTVHLLVDVPPEEPQLSCFRKSPLSNVVCEWGPRSTPSLTTKAVLLVRKFQNSPAEDFQEPCQYSQESQKFSCQLAVPEGDSSFYIVSMCVASSVGSKFSKTQTFQGCGILQPDPPANITVTAVARNPRWLSVTWQDPHSWNSSFYRLRFELRYRAERSKTFTTWMVKDLQHHCVIHDAWSGLRHVVQLRAQEEFGQGEWSEWSPEAMGTPWTESRSPPAENEVSTPMQALTTNKDDDNILFRDSANATSLPVQD
# notes: also called sIL6R; sIL-6R
# Columns and labels:
# recombinant human TNF-α [1] = target: T4, recombinant human TNF-α (human, UniProt P01375 77-233); assay: SPR Biacore T100, binder captured by anti-human Fc
# T4 construct: also called rhTNFα
# T4 sequence (P01375 77-233 limits assumed): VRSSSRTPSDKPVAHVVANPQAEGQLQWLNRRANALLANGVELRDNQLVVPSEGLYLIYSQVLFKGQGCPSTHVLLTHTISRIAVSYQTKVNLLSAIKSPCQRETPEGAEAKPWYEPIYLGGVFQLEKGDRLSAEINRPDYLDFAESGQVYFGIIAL
# [2] = target: T1, hu HIL6 Fc dimer (dimeric human …); assay: SPR Biacore T100, binder captured by anti-human Fc
# sIL6R Fc dimer [3] = target: T2, sIL6R Fc dimer; assay: SPR Biacore T100, binder captured by anti-human Fc
# hu HIL6 AFH monomer [4] = target: T3, hu HIL6 AFH monomer; assay: SPR Biacore T100, binder captured by anti-human Fc
# [5] = target: B4; assay: ELISA, Xceptor captured by anti-human Fc
# recombinant human IL6 = target: T5, recombinant human IL6 (human, UniProt P05231 30-212); assay: SPR Biacore T100, binder captured by anti-human Fc
# T5 construct: also called rhIL6; IL6 monomer
# [6] = target: T1, hu HIL6 Fc dimer (dimeric human …); assay: SPR Biacore T100, binder captured by anti-human Fc
# Description: (§1) Binding affinities and kinetic rate constants of interaction of hyper-IL6 (HIL6; monomer or dimer), and its components IL6 and sIL6R, with different anti-HIL6 binding domains in scFv, SMIP, Xceptor and reverse Xceptor formats were determined using a Biacore® T100 instrument (GE Healthcare, Piscataway, N.J.).
# (§2) Anti-HIL6 SMIPS, Xceptors, and reverse Xceptors were captured by a monoclonal mouse anti-human Fc, which was covalently conjugated to a carboxylmethyl dextran (CM4) surface via amines using N-ethyl-N′-(3-dimethylaminopropyl)-carbodiimide hydrochloride and N-hydroxysuccinimide. The unoccupied sites of the activated surface were blocked by ethanolamine. […] In every cycle, three different HIL6 binders were captured on flow cells 2, 3 and 4, while flow cell 1 was used as the reference cell. For each cycle, a single concentration of a single HIL6-related molecule was injected for 150 seconds at 35 microliters per minute, and then allowed to dissociate for 300 seconds. At the end of the cycle, the surface was regenerated gently using 3M MgCl₂, which dissociates protein bound to anti-hFc capture antibody. Multiple cycles were performed to study binding of monomeric or dimeric HIL6 at different concentrations, in the range of 0-100 nM, for each set of three HIL6 binders captured. […] The experiment was performed at 25° C. Signal associated with binding to the reference cell was used to subtract for bulk refractive changes and blank (buffer-only) injections were used to correct for drift and system noise. The kinetic parameters and affinities were determined using BIAevaluation software. Anti-HIL6 scFv molecules were analyzed in the reverse orientation using a dimeric human HIL6/mouse IgG Fc fusion protein captured by an immobilized rabbit polyclonal anti-mouse IgG Fc antibody on the surface and injecting different concentrations of scFv over the surface. For the HIL6 components IL6 (eBioscience, catalog no. 14-8069) and sIL6R, a single 100 nM injection was performed to obtain a qualitative assessment of binding.
# sIL6R Fc dimer [7] = target: T2, sIL6R Fc dimer; assay: SPR Biacore T100, binder captured by anti-human Fc; remark: listed apart in the source
# Description: as §1, §2
# hu HIL6 AFH monomer [8] = target: T3, hu HIL6 AFH monomer; assay: SPR Biacore T100, binder captured by anti-human Fc
# Description: as §1, §2
# recombinant human TNF-α [9] = target: T4, recombinant human TNF-α; assay: sandwich ELISA, HIL-6 coated, Xceptor, then TNF-α
# Description: The plate was covered, and incubated overnight at 4° C. […] The absorbance of each well was read at 450 nm.
# TRU(XT6)-1042 = target: T6, TRU(XT6)-1042; assay: ELISA, Xceptor captured by anti-human Fc
# T6 construct: Xceptor, TNFRSF1B ectodomain N-terminal, anti-IL6xR domain C-terminal
binder,measurement,setting,value
B1,Kd,recombinant human TNF-α [1],0.0031 nM
same,Kd,[2],61 nM
same,binding result,sIL6R Fc dimer [3],no binding (tested: 100 nM)
same,Kd,hu HIL6 AFH monomer [4],4.9 nM
same,binding result,[5],no binding (tested: 75 pM sIL-6R)
B2,Kd,recombinant human IL6,0.44 nM
same,Kd,[6],2.7 nM
same,binding result,sIL6R Fc dimer [7],no binding (tested: 100 nM)
same,Kd,hu HIL6 AFH monomer [8],2 nM
B3,binding result,recombinant human TNF-α [9],binds
B4,binding result,TRU(XT6)-1042,no binding (tested: 75 pM sIL-6R)
